Source: patent US20140370037A1

How the values were obtained:
[1] = target: human DLL3 on cells (human) (UniProt Q9NYJ7); assay: cell-based or functional assay
[2] = target: human DLL3 on cells (human), Q9NYJ7; assay: cell-based or functional assay
Chain of human DLL3 on cells (human), Q9NYJ7 (Q9NYJ7 27-618): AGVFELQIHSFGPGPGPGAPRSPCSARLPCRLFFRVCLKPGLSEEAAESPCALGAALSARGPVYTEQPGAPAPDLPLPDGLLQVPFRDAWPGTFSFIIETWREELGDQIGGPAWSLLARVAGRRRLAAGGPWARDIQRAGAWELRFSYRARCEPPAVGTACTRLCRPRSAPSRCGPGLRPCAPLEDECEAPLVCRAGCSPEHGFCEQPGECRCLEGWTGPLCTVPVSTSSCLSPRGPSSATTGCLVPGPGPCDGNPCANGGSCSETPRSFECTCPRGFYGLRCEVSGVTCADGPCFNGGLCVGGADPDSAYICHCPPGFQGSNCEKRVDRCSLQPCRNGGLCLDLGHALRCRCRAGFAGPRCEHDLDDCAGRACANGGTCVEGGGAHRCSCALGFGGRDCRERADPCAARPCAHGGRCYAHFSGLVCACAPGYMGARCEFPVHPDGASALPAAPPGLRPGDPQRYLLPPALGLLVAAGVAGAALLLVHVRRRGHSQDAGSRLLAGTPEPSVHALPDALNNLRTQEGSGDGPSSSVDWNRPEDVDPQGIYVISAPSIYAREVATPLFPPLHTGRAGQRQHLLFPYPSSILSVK

Chain of human DLL3 on cells (human) (Q9NYJ7 27-618): as above

Binder	EC50 of killing of OV26 NTX tumor cells with anti-mouse IgG Fab-saporin [1]	also measured
SC16.15 (antibody, V domains shown) VH: QVQLQQSGAELAKPGASVKMSCKASGYTFTRYWIHWIKQRPGQGLEWIGYINPTTVYTEFNQNFKDKATLTADKSSTTASMQLSSLTSEDSAVYYCARGGSNFFDYWGQGTTLTVSS VL: DIQMTQSPASLAASVGETVAITCRASENIYYNLAWYQQKQGKSPQLLIYTANSLEDGVPSRFSGSGSGTQYSLKINSMQPEDSATYFCKQAYDVPPTFGGGTKLEIK	0.14 pM	–
hSC16.15-ADC1 (antibody, human IgG1, V domains shown, here or on the partner: PBD dimer drug-linker ADC1 on reduced Cys residues (positions not stated)) VL: AIQLTQSPSSLSASVGDRVTITCRASENIYYNLAWYQQKPGKAPKLLIYTANSLEDGVPSRFSGSGSGTDFTLTISSLQPEDFATYFCKQAYDVPPTFGGGTKLEIK VH: QVQLVQSGAEVKKPGASVKVSCKASGYTFTRYWIHWIRQAPGQGLEWMGYINPTTVYTEFNQNFKDRVTMTRDTSTSTVYMELSSLRSEDTAVYYCARGGSNFFDYWGQGTTVTVSS	–	concentration that killed 50% of LU37 NTX cells (7 days, Cell Titer Glo) [2]: < 10 ng/mL
hSC16.56-ADC1 (antibody, human IgG1, V domains shown, here or on the partner: PBD dimer drug-linker ADC1 on reduced Cys residues (positions not stated)) VL: EIVMTQSPATLSVSPGERATLSCKASQSVSNDVVWYQQKPGQAPRLLIYYASNRYTGIPARFSGSGSGTEFTLTISSLQSEDFAVYYCQQDYTSPWTFGQGTKLEIKR VH: QVQLVQSGAEVKKPGASVKVSCKASGYTFTNYGMNWVRQAPGQGLEWMGWINTYTGEPTYADDFKGRVTMTTDTSTSTAYMELRSLRSDDTAVYYCARIGDSSPSDYWGQGTLVTVSS	–	dose that killed 50% of naïve KDY66 cells (7 days, Cell Titer Glo) [2]: 13.3 pM
SC16.34 (antibody, V domains shown) VH: QIQLVQSGPELKRPGETVKISCKASGYTFTNYGMNWVKQAPGKGLKWMGWINTYTGDPTYADDFKGRFAFSLETSASTAYLQINNLKNEDTATYFCARIGGNSPSDYWGQGTSLTVSS VL: SIVMTQTPKFLLVSAGDRVTITCKASQSVSNDVAWYQQKPGQSPKLLIYYASNRYSGVPDRFTGSGYGTDFTFTISTVQAEDLAVYFCQQDYSSPWTFGGGTKLEIK	5.7 pM	–
